Source: paper PMC10613257 (2023)

Biological target: insulin-like growth factor binding protein 5 (IGFBP5), full length, wild type (UniProt P24593 21-272, labelled with FAM-maleimide, 6-isomer after reduction with TCEP (in the fluorescence polarisation assay))
Assay: FP

Chain of insulin-like growth factor binding protein 5 (IGFBP5), full length, wild type (P24593 21-272): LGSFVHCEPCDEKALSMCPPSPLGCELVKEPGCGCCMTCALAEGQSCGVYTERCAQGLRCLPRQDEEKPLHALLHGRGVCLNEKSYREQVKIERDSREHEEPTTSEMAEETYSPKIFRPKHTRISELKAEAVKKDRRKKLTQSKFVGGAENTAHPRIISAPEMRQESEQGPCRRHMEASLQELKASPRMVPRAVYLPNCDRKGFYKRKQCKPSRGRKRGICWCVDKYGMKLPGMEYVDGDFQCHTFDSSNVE

- Kd: 237 nM
B1: PAPP-A E483A (catalytically inactive) (enzyme)
chain: REARGATEEPSPPSRALYFSGRGEQLRLRADLELPRDAFTLQVWLRAEGGQRSPAVITGLYDKCSYISRDRGWVVGIHTISDQDNKDPRYFFSLKTDRARQVTTINAHRSYLPGQWVYLAATYDGQFMKLYVNGAQVATSGEQVGGIFSPLTQKCKVLMLGGSALNHNYRGYIEHFSLWKVARTQREILSDMETHGAHTALPQLLLQENWDNVKHAWSPMKDGSSPKVEFSNAHGFLLDTSLEPPLCGQTLCDNTEVIASYNQLSSFRQPKVVRYRVVNLYEDDHKNPTVTREQVDFQHHQLAEAFKQYNISWELDVLEVSNSSLRRRLILANCDISKIGDENCDPECNHTLTGHDGGDCRHLRHPAFVKKQHNGVCDMDCNYERFNFDGGECCDPEITNVTQTCFDPDSPHRAYLDVNELKNILKLDGSTHLNIFFAKSSEEELAGVATWPWDKEALMHLGGIVLNPSFYGMPGHTHTMIHAIGHSLGLYHVFRGISEIQSCSDPCMETEPSFETGDLCNDTNPAPKHKSCGDPGPGNDTCGFHSFFNTPYNNFMSYADDDCTDSFTPNQVARMHCYLDLVYQGWQPSRKPAPVALAPQVLGHTTDSVTLEWFPPIDGHFFERELGSACHLCLEGRILVQYASNASSPMPCSPSGHWSPREAEGHPDVEQPCKSSVRTWSPNSAVNPHTVPPACPEPQGCYLELEFLYPLVPESLTIWVTFVSTDWDSSGAVNDIKLLAVSGKNISLGPQNVFCDVPLTIRLWDVGEEVYGIQIYTLDEHLEIDAAMLTSTADTPLCLQCKPLKYKVVRDPPLQMDVASILHLNRKFVDMDLNLGSVYQYWVITISGTEESEPSPAVTYIHGSGYCGDGIIQKDQGEQCDDMNKINGDGCSLFCRQEVSFNCIDEPSRCYFHDGDGVCEEFEQKTSIKDCGVYTPQGFLDQWASNASVSHQDQQCPGWVIIGQPAASQVCRTKVIDLSEGISQHAWYPCTISYPYSQLAQTTFWLRAYFSQPMVAAAVIVHLVTDGTYYGDQKQETISVQLLDTKDQSHDLGLHVLSCRNNPLIIPVVHDLSQPFYHSQAVRVSFSSPLVAISGVALRSFDNFDPVTLSSCQRGETYSPAEQSCVHFACEKTDCPELAVENASLNCSSSDRYHGAQCTVSCRTGYVLQIRRDDELIKSQTGPSVTVTCTEGKWNKQVACEPVDCSIPDHHQVYAASFSCPEGTTFGSQCSFQCRHPAQLKGNNSLLTCMEDGLWSFPEALCELMCLAPPPVPNADLQTARCRENKHKVGSFCKYKCKPGYHVPGSSRKSKKRAFKTQCTQDGSWQEGACVPVTCDPPPPKFHGLYQCTNGFQFNSECRIKCEDSDASQGLGSNVIHCRKDGTWNGSFHVCQEMQGQCSVPNELNSNLKLQCPDGYAIGSECATSCLDHNSESIILPMNVTVRDIPHWLNPTRVERVVCTAGLKWYPHPALIHCVKGCEPFMGDNYCDAINNRAFCNYDGGDCCTSTVKTKKVTPFPMSCDLQGDCACRDPQAQEHSRKDLRGYSHG
